Assay results as given in patent US20260167731A1 (DOMAIN THERAPEUTICS, published 2026).
Values joined by “and” are separate entries in the source; they are usually repeats but may differ in a detail not shown here. Equal values may be shown once.

How the values were obtained:
human CCR8 [1] = target: T1, human CCR8 (human, UniProt P51685 1-355); experiment: flow cytometry, inhibition of hCCL1-AF647 binding to hCCR8 CHO cells
T1 construct: also called hCCR8; hCCR8_P51685
Protocol: The hCCR8 transfected CHO cell line was dispatched at a density of 1·10⁵ per well in a 96-well plate. Cells were incubated for 30 min at 4° C. with or without anti-CCR8 mAb tested at 10 μg/mL then diluted at 1/3. Unbound antibodies were washed away with PBS (Gibco, Villebon-sur-Yvette, France) supplemented by 2% Fetal Bovine Serum (Invitrogen by Thermofisher Scientific, Illkirch-Graffenstaden, France) and 2 mM EDTA. […] After washing unbound ligands, CCL1 bound detection is quantified on a MacsQuant16 (Miltenyi, Gladbach, Germany) (R1 channel, 5 000 events per acquisition).
For IC₅₀ determination, a concentration response curve is performed using 8 concentrations of mAb. Curves are fitted and IC₅₀ of CCL1 binding blocking activity is calculated using the sigmoidal dose-response (variable slope) model on GraphPad Prism 9 (GraphPad Software, San Diego, CA, USA).

human CCR8 [2] = target: T1, human CCR8; experiment: cell-based or functional assay
human CCR8 [3] = target: T1, human CCR8; experiment: cell-based or functional assay; remark: listed apart in the source
human CCR8 [4] = target: T1, human CCR8; experiment: flow cytometry, hCCR8 transfected CHOK1 cells
Protocol: The same staining protocol was applied on human CCR8 transfected CHO cell line versus wild type CHO cell line, cutaneous T cell lymphoma HUT78 cell line and human activated T cell model.
Briefly, 1·10⁵ cells per well in a 96 well plate were incubated with a dilution of unconjugated anti-CCR8 mAb at 10 μg/mL then diluted at 1/3.33, 4 dilution points (during 30 min at 4° C.). In human activated T cells model, prior to mAb incubation, cells were first incubated with 200 nM of hCCL1 (R&D Systems, Minneapolis, MN, USA) or buffer PBS (Invitrogen by Thermofisher Scientific, Illkirch-Graffenstaden, France) supplemented by 2% Fetal Bovine Serum (Invitrogen by Thermofisher Scientific, Illkirch-Graffenstaden, France) and 2 mM EDTA (Invitrogen by Thermofisher Scientific, Illkirch-Graffenstaden, France) during 1 hour at 4° C. To determine EC50 value, 8 concentrations of anti-CCR8 mAb were tested. Unbound antibodies were washed away with PBS (Invitrogen by Thermofisher Scientific, Illkirch-Graffenstaden, France) supplemented by 2% Fetal Bovine Serum (Invitrogen by Thermofisher Scientific, Illkirch-Graffenstaden, France) and 2 mM EDTA (Invitrogen by Thermofisher Scientific, Illkirch-Graffenstaden, France). Subsequently, cells are centrifuged (5 min at 400 g) and bound antibody is detected with F(ab′)₂-Goat anti-Mouse IgG (H+L) Cross-Adsorbed Secondary Antibody, Alexa Fluor 488 (dilution 1/500) (Invitrogen by Thermofisher Scientific, Illkirch-Graffenstaden, France) or with F(ab′)₂-Goat anti-Human IgG Fc Secondary Antibody, PE (Invitrogen by Thermofisher Scientific, Illkirch-Graffenstaden, France) (dilution 1/1000) at 4° C. for 30 min. Detection reagent is washed away and cells are centrifuged (5 min at 400 g) and resuspended in 30 μL PBS. Bound detection antibody is quantified on a MacsQuant16 (Miltenyi, Gladbach, Germany) (B1 or B2 channel, 5000 events per acquisition). During the experiment, the respective isotype mAb controls (mouse IgG1, mouse IgG2a, mouse IgG2b, mouse IgG3 or human IgG1) (Biolegend, Amsterdam, The Netherlands) are included to exclude any unspecific binding events.

[5] = target: pm3, modified CCR8 related peptide (human, sulfated tyrosine at Y17); experiment: ELISA on coated CCR8 peptide (500 ng/mL), OD [cont.]
pm3, modified CCR8 related peptide (human, sulfated tyrosine at Y17), sequence (peptide, as listed by the source): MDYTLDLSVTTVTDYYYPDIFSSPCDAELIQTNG
Protocol: (§1) The specific binding properties of antibodies were evaluated by ELISA with coated CCR8 related peptides (500 ng/mL) in carbonate/bicarbonate buffer. Different peptides were used as described in Table 1 (see Example 1). Each anti-CCR8 mAb was tested at 1 μg/mL then diluted at 1/10. After an incubation at room temperature during 90 min, unbound mAbs were removed by washings. […] After washings, 3,3′,5,5′-tetramethylbenzidine (TMB) (Interchim, Montlugon, France) was added for 15 min. Then the optical density (OD) was determined by using a multiplate reader (Tecan, Lyon, France) and correlated with mAb reactivity on the panel of coated peptides.

[6] = target: T2, pwt1, unmodified CCR8 related peptide (human, none (non-sulfated Y15, Y16, Y17)); experiment: as above
T2 construct: First 34 amino acids of human CCR8, synthetic; also called unmodified peptide
T2 sequence (peptide, as listed by the source): as above
Protocol: as §1

[7] = target: pm5, modified CCR8 related peptide (human, sulfated tyrosines at Y15 and Y17); experiment: as above
pm5, modified CCR8 related peptide (human, sulfated tyrosines at Y15 and Y17), sequence (peptide, as listed by the source): as above
Protocol: as §1

[8] = target: pm1, modified CCR8 related peptide (human, sulfated tyrosine at Y15); experiment: as above
pm1, modified CCR8 related peptide (human, sulfated tyrosine at Y15), sequence (peptide, as listed by the source): as above
Protocol: as §1

[9] = target: pm2, modified CCR8 related peptide (human, sulfated tyrosine at Y16); experiment: as above
pm2, modified CCR8 related peptide (human, sulfated tyrosine at Y16), sequence (peptide, as listed by the source): as above
Protocol: as §1

[10] = target: pm4, modified CCR8 related peptide (human, sulfated tyrosines at Y15 and Y16); experiment: as above
pm4, modified CCR8 related peptide (human, sulfated tyrosines at Y15 and Y16), sequence (peptide, as listed by the source): as above
Protocol: as §1

[11] = target: pm6, modified CCR8 related peptide (human, sulfated tyrosines at Y16 and Y17); experiment: as above
pm6, modified CCR8 related peptide (human, sulfated tyrosines at Y16 and Y17), sequence (peptide, as listed by the source): as above
Protocol: as §1

[12] = target: pm8, modified CCR8 related peptide (human, sulfated tyrosines at Y15, Y16 and Y17); experiment: as above
pm8, modified CCR8 related peptide (human, sulfated tyrosines at Y15, Y16 and Y17), sequence (peptide, as listed by the source): as above
Protocol: as §1

human CCR8 [13] = target: T1, human CCR8; experiment: cell-based or functional assay; remark: listed apart in the source
human CCR8 [14] = target: T1, human CCR8; experiment: cell-based or functional assay; remark: listed apart in the source

Row | IC50 (human CCR8 [1]) | IC50, CCL1 induced hCCR8 Gi2 signaling (BRET, HEK-293) (human CCR8 [3]) | % positive cells (human CCR8 [4]) [%] | MFI fold change to isotype ctrl (human CCR8 [4]) [fold] | binding result [5] | binding result [6] | binding result [7] | binding result [8] | binding result [9] | binding result [10] | binding result [11] | binding result [12] | Binder | also measured
1 | 1.18 µg/mL and 7.92 nM | 0.026 µg/mL and 0.172 nM | 81.6 | 9.92 | – | – | – | – | – | – | – | – | anti-CCR8 mAb 2-9 (antibody, V domains shown) VH: QVQLQQPGSELVRPGASVKLSCKASGYTFTSYWMHWVKQRPGQGLEWIGNIWPGSASTNYDEKFKNKATLTVDTSSSTAYMQLSSLTSEDSAVYYCIRGGKGAMDYWSQGTSVTVSS VL: DVVMTQIPLSLPVSLGDQASISCRSSQSLENSYGNTYLNWYLQKPGQSPQLLIYRVSNRFSGVLDRFSGSGSGTDFTLKISRVEAEDLGVYFCLQVTHVPPTFGAGTKLELK | hCCL1 (100 nM) residual response in %, Protocol #2, mAb 0.08 µg/mL (0.53 nM) (human CCR8 [2]): 99%; hCCL1 (100 nM) residual response in %, Protocol #2, mAb 0.4 µg/mL (2.67 nM) (human CCR8 [2]): 83%; hCCL1 (100 nM) residual response in %, Protocol #2, mAb 10 µg/mL (66.7 nM) (human CCR8 [2]): 56%; hCCL1 (100 nM) residual response in %, Protocol #3, mAb 0.05 µg/mL (0.33 nM) (human CCR8 [2]): 116%; hCCL1 (100 nM) residual response in %, Protocol #3, mAb 0.5 µg/mL (3.33 nM) (human CCR8 [2]): 90%; hCCL1 (100 nM) residual response in %, Protocol #3, mAb 5 µg/mL (33.3 nM) (human CCR8 [2]): 45%
2 | 1.15 µg/mL and 7.73 nM | 0.044 µg/mL and 0.291 nM | 73.7 | 10.3 | binds | binds | binds | binds | binds | binds | binds | binds | anti-CCR8 mAb 2-5 (antibody, V domains shown) VH: EVQLQQSGPELVKPGASVKISCKTSGYTFTEYTIHWVKQSHGKSLEWVGGINPDNGNTRYDQKFKGKATLTIDKSSSTAYMELRSLTSEDSAVYYCARVARSSGSGPYAMDYWGQGTSVTVSS VL: DVVMTQTPLSLPVSLGDQASISCRCTQSLLHTNGDTYLHWYLQKPGQSPKLLIYKVSNRFSGVPDRFSGSGSGTDFTLKISRVEAEDLGVYFCSQSTHVPYTFGGGTKLEIK | –
3 | 2.73 µg/mL and 18.3 nM | 0.552 µg/mL and 3.68 nM | 57.7 | 3.84 | binds | binds | binds | binds | binds | binds | binds | binds | anti-CCR8 mAb 2-7 (antibody, V domains shown) VH: QVQLKESGPGLVAPSQSLSITCTVSGFSLTDYRVSWIRQPPGKGLEWLGVIWGGRSTYYNSALKSRLSISKDNSKSQVFLKMNSLQTDDTAMYYCAKQGDGYYALDYWGQGTSVTVSS VL: DVVMTQTPLSLPVSLGDQASISCRSSQSLVHSYGNTYLHWYLQKPGQSPKLLIYKVSNRFSGVPDRFHGSGSGTDFTLKISRVEAEDLGVYFCSQSTHVPPTFGGGTKLEIK | IC50, CCL1 induced hCCR8 Gi2 signaling (BRET) at pH 6.5 (human CCR8 [13]): 0.516 µg/ml and 3.44 nM; IC50, CCL1 induced hCCR8 Gi2 signaling (BRET) at pH 7.4 (human CCR8 [13]): 0.82 µg/ml and 5.47 nM
4 | 2.22 µg/mL and 14.8 nM | 0.712 µg/mL and 4.75 nM | 78.9 | 6.36 | binds | binds | binds | binds | binds | binds | binds | binds | anti-CCR8 mAb 2-8 (antibody, V domains shown) VH: QVQLKESGPGLVAPSQSLSITCTVSGFSLTDYGVSWIRQPPGKGPEWLGVIWGGGNTYYNSVLKSRLSISNDNSKSQVFLRMNSLQTADTAIYYCARPRRDYYALDYWGQGTSVTVAS VL: DVVMTQTPLSLPVSLGDQASISCRSSQSLVYTNGNTFLHWYLQKPGQSPKLLIYKVSNRFSGVPDRFSGSGSGTDFTLKISRVEAEDLGVYFCSQSTHVPPTFGGGTKLEIK | IC50, CCL1 induced hCCR8 Gi2 signaling (BRET) at pH 6.5 (human CCR8 [13]): 0.578 µg/ml and 3.85 nM; IC50, CCL1 induced hCCR8 Gi2 signaling (BRET) at pH 7.4 (human CCR8 [13]): 0.812 µg/ml and 5.41 nM
5 | 1.25 µg/mL and 8.34 nM | 0.106 µg/mL and 0.706 nM | 69.9 | 5.81 | binds | binds | binds | binds | binds | binds | binds | binds | anti-CCR8 mAb 2-6 (antibody, V domains shown) VH: QVQLKESGPGLVAPSQSLSITCTVSGLSMNDYVVTWIRQPPGKGLEWLGVIWGGGNTYYNSDLKSRLSITKDNSKSQVFFKMSSLQTDDTAVYYCARRHRDYALDYWGQGISVTVSS VL: ENVLTQSPAIMSASPGEKVTMTCRASSSVSSSYLHWYQQKSGASPKLWIYSTSNLASGVPARFSGSGSGTSYSLTISSVEAEDAATYYCQQYSGYPYTFGGGTKLEIK | –
6 | – | – | – | – | – | – | – | – | – | – | – | – | chimeric anti-CCR8 mAb 2-17 (antibody, human IgG1, kappa) heavy: not shown light: DVVMTQTPLSLPVSLGDQASISCRCTQSLLHTNGDTYLHWYLQKPGQSPKLLIYKVSNRFSGVPDRFSGSGSGTDFTLKISRVEAEDLGVYFCSQSTHVPYTFGGGTKLEIKRTVAAPSVFIFPPSDEQLKSGTASVVCLLNNFYPREAKVQWKVDNALQSGNSQESVTEQDSKDSTYSLSSTLTLSKADYEKHKVYACEVTHQGLSSPVTKSFNRGEC | ADCC % Max lysis, HUT78 targets, NK cells Donor 3 (human CCR8 [14]): 14%; ADCC % Max lysis, HUT78 targets, NK cells Donor 4 (human CCR8 [14]): 15%; ADCC EC50, HUT78 targets, NK cells Donor 3 (human CCR8 [14]): 0.793 nM; ADCC EC50, HUT78 targets, NK cells Donor 4 (human CCR8 [14]): 1.52 nM
7 | – | – | – | – | – | – | – | – | – | – | – | – | hypofucosylated (low fucosylated) chimeric anti-CCR8 mAb 2-19 (antibody, human IgG1, kappa, hypofucosylated Fc glycan) heavy: not shown light: DVVMTQTPLSLPVSLGDQASISCRCTQSLLHTNGDTYLHWYLQKPGQSPKLLIYKVSNRFSGVPDRFSGSGSGTDFTLKISRVEAEDLGVYFCSQSTHVPYTFGGGTKLEIKRTVAAPSVFIFPPSDEQLKSGTASVVCLLNNFYPREAKVQWKVDNALQSGNSQESVTEQDSKDSTYSLSSTLTLSKADYEKHKVYACEVTHQGLSSPVTKSFNRGEC | ADCC % Max lysis, HUT78 targets, NK cells Donor 3 (human CCR8 [14]): 29%; ADCC % Max lysis, HUT78 targets, NK cells Donor 4 (human CCR8 [14]): 29%; ADCC EC50, HUT78 targets, NK cells Donor 3 (human CCR8 [14]): 0.195 nM; ADCC EC50, HUT78 targets, NK cells Donor 4 (human CCR8 [14]): 0.282 nM
